In the assay the target is Slc1-FLAG (SycE-like chaperone 1; CT043) (Chlamydia trachomatis). The assay is described as follows: SEC. (Size exclusion chromatography separates by hydrodynamic size, large species first.)

One may read the stoichiometry N as the number of molecules, sites or subunits per partner or assembly. As to “Slc1-FLAG (SycE-like chaperone 1; CT043) (natural protein)”, the stoichiometry N amounted to 2.
